Data published in patent US20150337051A1 (MORPHOTEK, published 2015).

Assays:
[1] = molecular target: T1, TEM-1 in a native state on aortic smooth muscle cells (AoSMC) (UniProt Q9HCU0); assay: flow cytometry on AoSMC, primary antibody then FITC secondary; cells only 2.5, secondary only 3.9
T1 sequence (looked up): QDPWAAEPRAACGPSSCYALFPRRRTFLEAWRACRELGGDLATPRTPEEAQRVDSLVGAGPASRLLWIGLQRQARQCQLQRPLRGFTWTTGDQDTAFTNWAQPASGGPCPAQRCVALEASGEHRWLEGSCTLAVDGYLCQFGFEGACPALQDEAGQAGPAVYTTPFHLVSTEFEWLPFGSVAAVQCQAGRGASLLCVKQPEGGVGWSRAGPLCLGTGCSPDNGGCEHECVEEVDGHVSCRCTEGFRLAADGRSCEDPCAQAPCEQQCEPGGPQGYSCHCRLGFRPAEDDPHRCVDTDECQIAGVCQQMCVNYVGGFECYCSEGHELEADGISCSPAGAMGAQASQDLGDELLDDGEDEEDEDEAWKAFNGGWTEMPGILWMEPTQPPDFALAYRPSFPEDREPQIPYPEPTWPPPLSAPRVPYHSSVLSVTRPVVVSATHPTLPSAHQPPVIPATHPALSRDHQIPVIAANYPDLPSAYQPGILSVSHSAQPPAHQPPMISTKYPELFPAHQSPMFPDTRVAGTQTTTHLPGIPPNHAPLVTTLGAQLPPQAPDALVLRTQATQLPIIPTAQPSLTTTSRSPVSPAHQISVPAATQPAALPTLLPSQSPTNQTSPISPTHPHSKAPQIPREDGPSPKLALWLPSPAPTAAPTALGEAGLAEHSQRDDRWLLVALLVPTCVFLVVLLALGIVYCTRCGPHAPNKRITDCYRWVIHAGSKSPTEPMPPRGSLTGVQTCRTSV

[2] = molecular target: T2, recombinant CHO TEM-1 Fc fusion protein (UniProt Q9HCU0); assay: ECL sandwich, competition: biotin-9G5 capture, sulfo-TAG-15F8 detection; MORAb-004 spike 50 µg/mL, TEM-1-Fc QC 0.4 ng/mL; recovery at 0 µg/mL MORAb-004: 109
T2 sequence (looked up): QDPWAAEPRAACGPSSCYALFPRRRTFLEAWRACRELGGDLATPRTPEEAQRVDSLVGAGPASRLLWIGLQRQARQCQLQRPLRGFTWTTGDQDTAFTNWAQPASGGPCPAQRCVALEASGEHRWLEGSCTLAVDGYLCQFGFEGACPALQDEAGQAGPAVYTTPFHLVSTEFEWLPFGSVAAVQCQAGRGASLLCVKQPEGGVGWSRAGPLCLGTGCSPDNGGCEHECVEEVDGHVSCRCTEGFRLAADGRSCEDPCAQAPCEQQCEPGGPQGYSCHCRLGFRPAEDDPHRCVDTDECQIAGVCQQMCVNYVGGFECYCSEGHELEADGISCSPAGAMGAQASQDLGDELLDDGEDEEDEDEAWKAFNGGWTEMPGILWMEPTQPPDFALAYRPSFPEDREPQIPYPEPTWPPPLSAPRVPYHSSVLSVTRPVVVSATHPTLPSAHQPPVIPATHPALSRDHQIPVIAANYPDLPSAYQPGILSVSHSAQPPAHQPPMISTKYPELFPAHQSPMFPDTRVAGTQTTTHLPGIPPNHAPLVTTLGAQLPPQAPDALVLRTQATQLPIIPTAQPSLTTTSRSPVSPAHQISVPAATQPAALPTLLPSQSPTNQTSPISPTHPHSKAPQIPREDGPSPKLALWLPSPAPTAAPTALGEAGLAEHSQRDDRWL

[3] = molecular target: T2, recombinant CHO TEM-1 Fc fusion protein; assay: ECL sandwich, competition: biotin-9G5 capture, sulfo-TAG-15F8 detection; MORAb-004 spike 6.25 µg/mL, TEM-1-Fc QC 10 ng/mL; recovery at 0 µg/mL MORAb-004: 105
[4] = molecular target: T2, recombinant CHO TEM-1 Fc fusion protein; assay: ECL sandwich, competition: biotin-9G5 capture, sulfo-TAG-15F8 detection; MORAb-004 spike 6.25 µg/mL, TEM-1-Fc QC 50 ng/mL; recovery at 0 µg/mL MORAb-004: 104
[5] = molecular target: T2, recombinant CHO TEM-1 Fc fusion protein; assay: ECL sandwich, competition: biotin-9G5 capture, sulfo-TAG-15F8 detection; MORAb-004 spike 1.5625 µg/mL, TEM-1-Fc QC 2 ng/mL; recovery at 0 µg/mL MORAb-004: 106
[6] = molecular target: T2, recombinant CHO TEM-1 Fc fusion protein; assay: ECL sandwich, competition: biotin-9G5 capture, sulfo-TAG-15F8 detection; MORAb-004 spike 1.5625 µg/mL, TEM-1-Fc QC 50 ng/mL; recovery at 0 µg/mL MORAb-004: 104
[7] = molecular target: T2, recombinant CHO TEM-1 Fc fusion protein; assay: ECL sandwich, competition: biotin-9G5 capture, sulfo-TAG-15F8 detection; MORAb-004 spike 12.5 µg/mL, TEM-1-Fc QC 0.08 ng/mL; recovery at 0 µg/mL MORAb-004: 114
[8] = molecular target: T2, recombinant CHO TEM-1 Fc fusion protein; assay: ECL sandwich, competition: biotin-9G5 capture, sulfo-TAG-15F8 detection; MORAb-004 spike 0.78125 µg/mL, TEM-1-Fc QC 10 ng/mL; recovery at 0 µg/mL MORAb-004: 105
[9] = molecular target: T2, recombinant CHO TEM-1 Fc fusion protein; assay: ECL sandwich, competition: biotin-9G5 capture, sulfo-TAG-15F8 detection; MORAb-004 spike 1.5625 µg/mL, TEM-1-Fc QC 0.4 ng/mL; recovery at 0 µg/mL MORAb-004: 109
[10] = molecular target: T2, recombinant CHO TEM-1 Fc fusion protein; assay: ECL sandwich, competition: biotin-9G5 capture, sulfo-TAG-15F8 detection; MORAb-004 spike 3.125 µg/mL, TEM-1-Fc QC 0.08 ng/mL; recovery at 0 µg/mL MORAb-004: 114
[11] = molecular target: T2, recombinant CHO TEM-1 Fc fusion protein; assay: ECL sandwich, competition: biotin-9G5 capture, sulfo-TAG-15F8 detection; MORAb-004 spike 0.78125 µg/mL, TEM-1-Fc QC 0.4 ng/mL; recovery at 0 µg/mL MORAb-004: 109

Geometric mean of resulting FACS plot [1]: 103
% Recovery of TEM-1 QCs spiked with MORAb-004 [2]: 91.9%
% Recovery of TEM-1 QCs spiked with MORAb-004 [3]: 94.4%
% Recovery of TEM-1 QCs spiked with MORAb-004 [4]: 95.7%
% Recovery of TEM-1 QCs spiked with MORAb-004 [5]: 98.9%
% Recovery of TEM-1 QCs spiked with MORAb-004 [6]: 98.9%
% Recovery of TEM-1 QCs spiked with MORAb-004 [7]: 99.4%
% Recovery of TEM-1 QCs spiked with MORAb-004 [8]: 100%
% Recovery of TEM-1 QCs spiked with MORAb-004 [9]: 102%
% Recovery of TEM-1 QCs spiked with MORAb-004 [10]: 103%
% Recovery of TEM-1 QCs spiked with MORAb-004 [11]: 105%
B1: MORAb-004 (antibody, INN chains, looked up, V domains shown)
VH: QVQLQESGPGLVRPSQTLSLTCTASGYTFTDYVIHWVKQPPGRGLEWIGYINPYDDDTTYNQKFKGRVTMLVDTSSNTAYLRLSSVTAEDTAVYYCARRGNSYDGYFDYSMDYWGSGTPVTVSS
VL: DIQMTQSPSSLSASVGDRVTITCRASQNVGTAVAWLQQTPGKAPKLLIYSASNRYTGVPSRFSGSGSGTDYTFTISSLQPEDIATYYCQQYTNYPMYTFGQGTKVQIK
